Test results: patent publication US12331319B2, “Respiratory and sweat gland ionocytes” (The Broad Institute, Inc., priority 2017, dated 2025)

Tested on: cultured proximal and distal airway epithelium
Experiment: IL-13-induced mucous metaplasia (goblet cell differentiation) in cultured proximal and distal airway epithelium (ALI)
Format: cell-based, mouse
Conditions: rIL-13 25 ng/mL vs control; epithelia from proximal vs distal trachea, Foxj1-GFP mice n=6; p<0.001
Procedure: Transwell cultures. Cells were cultured and expanded in complete SAGM (small airway epithelial cell growth medium; Lonza, CC-3118) containing TGF-β/BMP4/WNT antagonist cocktails and 5 μM Rock inhibitor Y-27632 (Selleckbio, S1049). To initiate air-liquid interface (ALI) cultures, airway basal stem cells were dissociated from mouse tracheas and seeded onto transwell membranes. After reaching confluence, media was removed from the upper chamber. Mucociliary differentiation was performed with PneumaCult-ALI Medium (StemCell, 05001). Differentiation of airway basal stem cells on an air-liquid interface was followed by directly visualizing beating cilia in real time after 10-14 days. […]
Statistical analysis of proximodistal mucous metaplasia. For the analysis in FIG. 18H,I, the extent of goblet cell hyperplasia was assessed using counts of Muc5ac^+ goblet cells, normalized to counts of GFP^+ ciliated cells. To quantify differences in the count values between the samples in different conditions (n=6, Foxj1-GFP mice), Applicants fit a negative binomial regression using the ‘glm.nb’ function from the ‘MASS’ package in R. Pairwise comparisons between means for each condition were computed using post hoc tests and p-values were adjusted for multiple comparisons using Tukey's HSD, implemented using the function ‘pairs’ from the ‘emeans’ package in R.

B1: rIL-13: recombinant murine IL-13 (Peprotech) used to induce mucous metaplasia (protein, UniProt P20109 19-131, looked up)
Interleukin-13: APGPVPRSVSLPLTLKELIEELSNITQDQTPLCNGSMVWSVDLAAGGFCVALDSLTNISNCNAIYRTQRILHGLCNRKAPTTVSSLPDTKIEVAHFITKLLSYTKQLFRHGPF
For B1, the “induction of goblet cell differentiation (Muc5ac+ goblet cells / GFP+ ciliated cells)” value was “much higher induction of goblet cell differentiation in the distal epithelium”.
